# Source: the nanobody polyreactivity screen of Harvey et al. (2022)
# Experiment: yeast display, Sf9 membrane polyspecificity reagent, FACS + sequencing; frameworks hold sequencing errors
# Procedure, shortened: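 Genes from sorted yeast were amplified by colony PCR, read by MiSeq 2 × 250 sequencing and filtered on CDR length. These cells carried a synthetic nanobody library in Saccharomyces cerevisiae BJ5465 and were sorted by FACS into low and high (top ~1%) gates on anti-HA and streptavidin fluorescence. Polyreactivity is labelled according to the gate of origin.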
row,Sequence,polyreactivity (PSR sort gate)
1,QVQLVESGGGLVQAGGSLRLSCAASGITFWDYAMGWYRQAPGKERELVAGISTRGGSTYYADSVKGRFTISRDNEKNTVYLQMNSLKPEDTAVYYCATDDPLSQINEQGMDYWGQGTQVTVSS,low polyreactivity
2,QVQLVESGGGLVQAGGSLRLSCAASGITFWDYAMGWYRQAPGKERELVAGITSRGGSTYYADSVKGRFTISRDNAKNTVYLQMNSLKPADTGVNSCNAYRLHSRRYYYWGQGTQVTVSS,low polyreactivity
3,QVQLVESGGGLVQAGGSLRLSCAASGITFWGYAMGWYRQAPGKEREFVARINWSGGRTYYAESVKGRFTISRDNAKNTVYLQMNSLKPEDTAVYYCAATSLIYCYRTYYYWGQGTQVTVSS,high polyreactivity
4,QVQLVESGGGLVQAGGSLRLSCAASGITFWGYAMGWYRQAPGKERELVAAISKTGGSTYYADSVKGRFTISRDNAKNTVYLQMNSLKPEDTAVYYCNTVTANGDFGYWGQGTQVTVSS,low polyreactivity
5,QVQLVESGGGLVQAGGSLRLSCAASGITFWGYVMGWYRQAPGKERELVAAISSSGGRTYYADSVKGRFTISRDNAKNTVYLQMNSLKPEDTAVYYCAARFLYANRYSVDYDYWGQGTQVTVSS,high polyreactivity
6,QVQLVESGGGLVQAGGSLRLSCAASGITFWLYAMGWYRQAPGKERELVAAITSGGSTTYADSVKGRFTISRDNAKNTVFLQMYSLKPEDSAVYYCNAEYQDWFGRLDYWGQGTQVTVSS,high polyreactivity
7,QVQLVESGGGLVQAGGSLRLSCAASGITFWLYAMGWYRQAPGKERELVAGIDNGGSTTYADSVKGRFTISRDNAKNTVYLQMNILKPEDTAVYYCAATFEWDPVYPYNGFIYDYWGQGTQVTVSS,high polyreactivity
8,QVQLVESGGGLVQAGGSLRLSCAASGITFWRYAMGWYRQAPGKERELVAAINSGGGTKFADSVKGRFTISRDNAKNTVYLQMNSLKPEDTAVYYCAAKYVFTLHRYDYWGQGTQVTVSS,high polyreactivity
9,QVQLVESGGGLVQAGGSLRLSCAASGITFWRYAMGWYRQAPGKERELVAAIRWSGSTYADSVKGRFTISRDNAKNTVYLQMNSLKPEDTAVYYCAAYPIGGYHDMDYWGQGTQVTVSS,high polyreactivity
10,QVQLVESGGGLVQAGGSLRLSCAASGITFWYYAMGWYRQAPGKERELVARIRRSGGSTYYADSVKGRFTISRDNAKNTVYLQMNSLKPEDTAVYYCAAEPRWTAVYQGAERFYYWGQGTQVTVSS,high polyreactivity
11,QVQLVESGGGLVQAGGSLRLSCAASGITFWYYAMGWYRQAPGKERELVAVISRGGSTYYADSVKGRFTISRDNAKNTVYLQMNSLKPEDTAVYYCAADVSVSGYYYWGQGTQVTVSS,high polyreactivity
12,QVQLVESGGGLVQAGGSLRLSCAASGITFYANAMGWYRQAPGKERELVATISYRGGSTYYADSVKGRFTISRDNAKNTVYLQMNSLKPEDTAVYYCAARRRRTSNTRVEHNYWGQGTQVTVSS,high polyreactivity
13,QVQLVESGGGLVQAGGSLRLSCAASGITFYANTMGWYRQAPGKERELVAAISGIGGSTYYADSVMGRFAISRDNAKNTVYLQMNSLKPEDTAVYYCNADVYYFLFGTFDYWGQGTQVTVSS,low polyreactivity
14,QVQLVESGGGLVQAGGSLRLSCAASGITFYAYAMGWYRQAPGKERELVAAITSSGSSTYYADSVKGRFTISRDNAKNTVYLQMISLKPEDSAVYYCAARRYRSVRNDYWGQGTQVTVSS,high polyreactivity
15,QVQLVESGGGLVQAGGSLRLSCAASGITFYDYAMGWYRQAPGKERELVAAISDSGGITYYADSVKGRFTISRDNAKNTVYLQMNSLKPEDTAVYYCNAKSVRRERYKFDYWGQGTQVTVSS,high polyreactivity
16,QVQLVESGGGLVQAGGSLRLSCAASGITFYDYAMGWYRQAPGKERELVAAISFSGSRTYYADSVKGRFTISRDHAKNTVSLQMNSLKPDDTAVYYCAASQASNYKIYDYWGQGTQVTVSS,high polyreactivity
17,QVQLVESGGGLVQAGGSLRLSCAASGITFYDYDMGWYRQAPGKERELVAAINSGASTSYADSVKGRFTISRDNAKNTVYLQMNSLKPEDTAVYYCNADVRVDYLSGDLDYWGQGTQVTVSS,low polyreactivity
18,QVQLVESGGGLVQAGGSLRLSCAASGITFYDYPMGWYRQAPGKERELVAAITSSGGRTYYADSVKGRFTISRDNAKNTVYLQMNSLKPEDTAVYYCAASTYPHEYDYWGQGTQVTVSS,low polyreactivity
19,QVQLVESGGGLVQAGGSLRLSCAASGITFYEYAMGWYRQAPGKEREFVAAIDDGDSSTYYADSVKGRFTISRDNAKNTVYLQMNSLKPEDTAVYYCNADPYYDYSLNWGDYWGQGTQVTVSS,low polyreactivity
20,QVQLVESGGGLVQAGGSLRLSCAASGITFYFNAMGWYRQAPGKERELVAAITFSGSSTYYADSVKGRFTISRDNAKNTVYLQMNSQKPEDSAVYYCAAYLTRYDFRWHTYYYWGLGTQVTVSS,low polyreactivity
21,QVQLVESGGGLVQAGGSLRLSCAASGITFYFNAMGWYRQAPGKERELVAANTSGGGSTYYADSVKGRFTISRDNAKNTVYLQRNSLKPEDTAVYYCAAEWSYGGMDYWGQGTQVTVSS,low polyreactivity

row,Sequence,polyreactivity (PSR sort gate)
1,QVQLVESGGGLVQAGGSLRLSCAASGITFYGNAMGWYRQAPGKERELVAAIRRGGSTNYADSVKGRFTISRDNAKNTVYLQMNSLKPEDTALYYCAADRYGYTYRNYRVGYWGQGTQVTVSS,high polyreactivity
2,QVQLVESGGGLVQAGGSLRLSCAASGITFYGNAMGWYRQAPGKERELVAGISSGGSTSYADSVKGRFTISRDNAKNTVYLQMDSLKPEDTAVYYCAKRWYYGTRYGTSYIRDYWGQGTQVTVSS,high polyreactivity
3,QVQLVESGGGLVQAGGSLRLSCAASGITFYGYAMGWYRQAPGKERELVAAITSGGSTNYADSVKGRFTISRDNAKNTVYLQMNSLKPEDTAVYYCAADLWAYGYYYVGYDYWGQGTQVTVSS,low polyreactivity
4,QVQLVESGGGLVQAGGSLRLSCAASGITFYGYAMGWYRQAPGKERELVAVITPSGSSTYYADSVKGRFTISRDNAKNTVYLQMNSLIPEDTAVYYCNARPGRRSLRSRTYDYWGQGTQVTVSS,high polyreactivity
5,QVQLVESGGGLVQAGGSLRLSCAASGITFYGYTMGWYRQAPGKERELVAAITSGGNTYYADSVKGRFTISRDNAKNPVYLQMNCLKPEDTAVYYCAARRYCYTSITWCDYWRQGTQVTVSS,high polyreactivity
6,QVQLVESGGGLVQAGGSLRLSCAASGITFYHYAMGWYRQAPGKERELVAAISSDDNTNYADSVKGRFTISRDNAKNTVYLQMNSLKPEDTAVYYCAAAPWYFYDQYFNAISFGYYYWGQGTQVTVSS,high polyreactivity
7,QVQLVESGGGLVQAGGSLRLSCAASGITFYIYAMGWYRQAPGKERELVAAISDDGSTHYADSVKGRFTISRDNAKNTVYLQMNSLTPEDTAVYYCNADDDWFFDFFDYDYWGQGTQVTVSS,low polyreactivity
8,QVQLVESGGGLVQAGGSLRLSCAASGITFYKYAKGWYRQAPGKERELVAAISRSGTTTYYADSVKGRFTISRDNAKNTVYLQMNSLKPEDTAVYYCNTVNWLTLNDRYYYWGQGTQVTVSS,high polyreactivity
9,QVQLVESGGGLVQAGGSLRLSCAASGITFYKYVMGWYRQAPGKERELVAAITYSGGSTYYADSVKGRFTISRDYAKNTVYLQMYSLKPEDTAVYYCAKRRPALRWIYYYWGQGTQVTVSS,high polyreactivity
10,QVQLVESGGGLVQAGGSLRLSCAASGITFYLYAMGWYRQAPGKERELVAAISRGGSTNYADSVKGRFTISRDNAKNTVYLQMNSLKPEDTAVYYCAAVDRYGFGYWGQGTQVTVSS,high polyreactivity
11,QVQLVESGGGLVQAGGSLRLSCAASGITFYPYAMGWYRQAPGKERELVAAISWRSGSTNYADSVKGRFTISRDNAKNTVYLQMNSLKPEDTAVYYCNFDKVTSWYYYGYWGQGTQVTVSS,low polyreactivity
12,QVQLVESGGGLVQAGGSLRLSCAASGITFYQYAMGWYRQAPGKERELVAGINSGGSTNYADSVKGRFTISRDNAKNTVYLQMNSLKPEDTAVYYCAAPWGWARRYRVYGGYYWGQGTQVTVSS,high polyreactivity
13,QVQLVESGGGLVQAGGSLRLSCAASGITFYRKAMGWYRPAPGKEREFVAAINYGGSSTRYADSVKGRFTISRDYAKNTVYLQMNSLKPEDTAVYYCAVEKRYPRRRYDYWGQGTQVTVSS,low polyreactivity
14,QVQLVESGGGLVQAGGSLRLSCAASGITFYRNAMGWDRQAPGKERELVAAISSRGGRTYYADSVKGRFTISRDNAKNTVYVQMNSLKPEDTAVYYCAKGGKVGSTLEYDYWGQGTQVTVST,high polyreactivity
15,QVQLVESGGGLVQAGGSLRLSCAASGITFYRNAMGWYRQAPGKERELVAAISRRGGITRYADSVKGRFTISRDNAKNTVYLQMNSLKPEDTAVYYCAVAVNGVSRIKYYYWGQGTQVTVSS,high polyreactivity
16,QVQLVESGGGLVQAGGSLRLSCAASGITFYRYALGWYRQAPGKERELVAAISSSGGSTYYADSVKGRFTISRDNAKNTVYLQMNSLKPEDTAVYYCATDSLYDYWGQGTQVTVSS,high polyreactivity
17,QVQLVESGGGLVQAGGSLRLSCAASGITFYRYGMGWYRQAPGKARELVAAITYNGGGTYYADSVKGRFTISRDNAKNTVYLQMNSLKPEDTAVYYCNARYYRKYDYWGQGTQVTVSS,high polyreactivity
18,QVQLVESGGGLVQAGGSLRLSCAASGITFYRYGMGWYRQAPGKERELVAAITSRGGSTSYADSVKGRFTISRDNAKNTVYLQMNSLKPEDTAVYYCAAFYRRDYDYWGQGTQVTVSS,high polyreactivity
19,QVQLVESGGGLVQAGGSLRLSCAASGITFYRYTMGWYRQAPGKERELVAAIRSGGSTYYADSVKGRFTISRDNAKNTVYLQMNSLKPEDTAVYYCAAPYYRYNVPYYGGNGGDYWGQGTQVTVSS,high polyreactivity
20,QVQLVESGGGLVQAGGSLRLSCAASGITFYSYAMGWYRQAPGKERELVAAISSSGTTYYADSVKGRFTISRDNAKNTVYLQMNSLKPEDTAVYYCATDYSLGWYQDSDGGYQFDYWGQGTQVTVSS,high polyreactivity
